Reference: publication PMC11189301, “Structure of the human outer kinetochore KMN network complex” (Nature Structural & Molecular Biology, 2024)

T1: MIS12 complex (Mis12, Pmf1, Dsn1, Nsl1), wild type, full length (Homo sapiens, UniProt Q9H081 1-205; Q6P1K2 1-205; Q9H410 1-356; Q96IY1 1-281)
T1 construct: Mis12, subunit of human MIS12C; Pmf1, subunit of human MIS12C; Dsn1, subunit of human MIS12C; Nsl1, subunit of human MIS12C; The DS tag on Pmf1 is TEV cleavable; a cleavage is not described; also called MIS12C (WT); wild-type MIS12C; source: High-5 insect cells (baculovirus), purified (Strep-Tactin, Resource S, Superdex 200); copies: + + +
T1 sequence (looked up) 1: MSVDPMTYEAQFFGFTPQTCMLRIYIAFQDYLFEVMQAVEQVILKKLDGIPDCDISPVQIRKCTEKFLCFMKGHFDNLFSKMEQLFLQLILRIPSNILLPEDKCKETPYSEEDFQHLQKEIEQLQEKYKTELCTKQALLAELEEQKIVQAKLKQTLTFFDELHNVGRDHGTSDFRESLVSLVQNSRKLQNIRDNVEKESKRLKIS
T1 sequence (looked up) 2: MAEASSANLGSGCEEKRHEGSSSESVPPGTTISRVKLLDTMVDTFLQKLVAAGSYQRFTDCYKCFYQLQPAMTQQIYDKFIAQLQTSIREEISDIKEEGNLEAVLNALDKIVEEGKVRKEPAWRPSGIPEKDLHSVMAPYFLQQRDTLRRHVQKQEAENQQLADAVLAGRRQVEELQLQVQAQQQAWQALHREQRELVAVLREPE
T1 sequence (looked up) 3: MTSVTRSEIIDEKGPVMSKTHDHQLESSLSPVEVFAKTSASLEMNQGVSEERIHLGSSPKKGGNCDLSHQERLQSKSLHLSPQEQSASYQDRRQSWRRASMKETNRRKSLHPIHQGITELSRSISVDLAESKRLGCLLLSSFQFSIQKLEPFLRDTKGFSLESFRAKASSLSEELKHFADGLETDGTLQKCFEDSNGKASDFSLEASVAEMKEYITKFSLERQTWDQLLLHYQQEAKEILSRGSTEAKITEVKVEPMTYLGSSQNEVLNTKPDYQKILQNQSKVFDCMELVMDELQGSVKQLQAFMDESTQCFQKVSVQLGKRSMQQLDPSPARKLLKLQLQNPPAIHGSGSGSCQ
T1 sequence (looked up) 4: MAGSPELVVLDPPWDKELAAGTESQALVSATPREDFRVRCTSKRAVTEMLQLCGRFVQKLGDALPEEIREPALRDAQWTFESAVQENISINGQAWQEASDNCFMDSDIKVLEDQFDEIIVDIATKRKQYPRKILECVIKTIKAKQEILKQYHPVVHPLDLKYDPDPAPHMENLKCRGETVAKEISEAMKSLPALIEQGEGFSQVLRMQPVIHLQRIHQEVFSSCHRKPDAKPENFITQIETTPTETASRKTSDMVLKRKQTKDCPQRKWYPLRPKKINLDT

T2: MIS12 complex with Nsl1 truncated at the C terminus (Nsl1 1–264; residues 265–281 deleted) (Homo sapiens, UniProt Q9H081 1-205; Q6P1K2 1-205; Q9H410 1-356; Q96IY1 1-264)
T2 construct: Mis12, subunit of human MIS12C; Pmf1, subunit of human MIS12C; Dsn1, subunit of human MIS12C; Nsl1, subunit of human MIS12C, residues 1-264; also called MIS12C^Nsl1ΔC; Nsl^1–264; source: High-5 insect cells (baculovirus), purified (Strep-Tactin, Resource S, Superdex 200); copies: + + +
T2 sequence (looked up) 1: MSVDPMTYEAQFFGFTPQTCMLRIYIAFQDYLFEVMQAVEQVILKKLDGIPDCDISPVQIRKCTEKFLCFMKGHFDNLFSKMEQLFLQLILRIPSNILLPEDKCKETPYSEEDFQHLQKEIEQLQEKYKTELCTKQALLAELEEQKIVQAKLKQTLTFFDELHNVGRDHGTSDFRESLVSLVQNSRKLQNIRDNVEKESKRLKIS
T2 sequence (looked up) 2: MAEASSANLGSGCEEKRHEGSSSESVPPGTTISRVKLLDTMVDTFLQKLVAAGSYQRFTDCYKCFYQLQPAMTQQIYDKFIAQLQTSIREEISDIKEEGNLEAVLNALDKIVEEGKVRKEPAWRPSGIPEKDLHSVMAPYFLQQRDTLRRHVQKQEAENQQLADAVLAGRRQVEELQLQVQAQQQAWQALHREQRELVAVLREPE
T2 sequence (looked up) 3: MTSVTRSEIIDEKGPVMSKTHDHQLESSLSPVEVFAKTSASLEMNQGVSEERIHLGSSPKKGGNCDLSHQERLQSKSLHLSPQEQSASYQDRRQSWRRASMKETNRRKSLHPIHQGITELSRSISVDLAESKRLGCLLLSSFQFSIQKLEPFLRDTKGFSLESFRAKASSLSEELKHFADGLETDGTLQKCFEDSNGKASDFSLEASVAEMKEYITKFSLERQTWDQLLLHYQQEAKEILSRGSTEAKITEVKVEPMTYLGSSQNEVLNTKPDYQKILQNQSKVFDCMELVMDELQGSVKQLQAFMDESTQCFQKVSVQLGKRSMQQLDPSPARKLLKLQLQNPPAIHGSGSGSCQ
T2 sequence (looked up) 4: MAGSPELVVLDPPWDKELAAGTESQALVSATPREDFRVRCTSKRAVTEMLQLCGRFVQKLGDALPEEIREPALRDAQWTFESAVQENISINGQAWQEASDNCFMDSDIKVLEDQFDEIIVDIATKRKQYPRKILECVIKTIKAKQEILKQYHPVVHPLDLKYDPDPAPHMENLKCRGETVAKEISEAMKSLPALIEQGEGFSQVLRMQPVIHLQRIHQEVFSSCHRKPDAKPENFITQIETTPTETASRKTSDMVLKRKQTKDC


Assays:
Details in all cases: both partners purified
[1] = biological target: T1, MIS12 complex (Mis12, Pmf1, Dsn1, …); test: SEC; MIS12C or MIS12C^Nsl1ΔC mixed with Knl1 2131–2337 or its mutants at 4 µM each; 20 mM HEPES pH 7.8, 150 mM NaCl, 0.5 mM TCEP; Superose 6; fractions on SDS-PAGE
[2] = biological target: T2, MIS12 complex with Nsl1 truncated at …; test: as above
[3] = biological target: T1, MIS12 complex (Mis12, Pmf1, Dsn1, …); test: cryo-EM structure; NDC80C, MIS12C and KNL1C mixed 1:1:1 and run on Superose 6 in 20 mM HEPES pH 8.0, 80 mM NaCl, 1 mM MgCl2, 1 mM TCEP; about 1 mg/ml on UltrAuFoil grids; 3.0 Å (MIS12C heads 3.8 Å)

Binder | binding result [1] | binding result [2] | binding result [3]
Knl1 RWD domains, residues 2131–2337, wild type (domain or fragment, H. sapiens, UniProt Q8NG31 2131-2337, looked up, Knl1, human, residues 2131-2337 (tandem RWD domains); also called Knl1^2131–2337; wild-type KNL1; source: E. coli BL21 (DE3), purified (Ni-NTA, reverse IMAC, Superdex 75); not shown: His6, N-terminal, cleaved) SLSEWDVVEWSDDQAVFTFVYDTIQLTITFEESVVGFPFLDKRYRKIVDVNFQSLLDEDQAPPSSLLVHKLIFQYVEEKESWKKTCTTQHQLPKMLEEFSLVVHHCRLLGEEIEYLKRWGPNYNLMNIDINNNELRLLFSSSAAFAKFEITLFLSAYYPSVPLPSTIQNHVGNTSQDDIATILSKVPLENNYLKNVVKQIYQDLFQD | binds | binds | –
KNL1 complex (Knl1 residues 1870–2342 with ZWINT) (complex, human, Knl1, human, 2,342-residue protein, residues 1870-2342; ZWINT, human, constitutive partner of Knl1; Amplified from cDNA; also called Knl1–ZWINT; source: High-5 insect cells (baculovirus), purified (His-tag column, Resource Q)) chain 1: QMESQFLRDTICEESLREKLQDGRITIREFFILLQVHILIQKPRQSNLPGNFTVNTPPTPEDLMLSQYVYRPKIQIYREDCEARRQKIEELKLSASNQDKLLVDINKNLWEKMRHCSDKELKAFGIYLNKIKSCFTKMTKVFTHQGKVALYGKLVQSAQNEREKLQIKIDEMDKILKKIDNCLTEMETETKNLEDEEKNNPVEEWDSEMRAAEKELEQLKTEEEELQRNLLELEVQKEQTLAQIDFMQKQRNRTEELLDQLSLSEWDVVEWSDDQAVFTFVYDTIQLTITFEESVVGFPFLDKRYRKIVDVNFQSLLDEDQAPPSSLLVHKLIFQYVEEKESWKKTCTTQHQLPKMLEEFSLVVHHCRLLGEEIEYLKRWGPNYNLMNIDINNNELRLLFSSSAAFAKFEITLFLSAYYPSVPLPSTIQNHVGNTSQDDIATILSKVPLENNYLKNVVKQIYQDLFQDCHFYH chain 2: MEAAETEAEAAALEVLAEVAGILEPVGLQEEAELPAKILVEFVVDSQKKDKLLCSQLQVADFLQNILAQEDTAKGLDPLASEDTSRQKAIAAKEQWKELKATYREHVEAIKIGLTKALTQMEEAQRKRTQLREAFEQLQAKKQMAMEKRRAVQNQWQLQQEKHLQHLAEVSAEVRERKTGTQQELDRVFQKLGNLKQQAEQERDKLQRYQTFLQLLYTLQGKLLFPEAEAEAENLPDDKPQQPTRPQEQSTGDTMGRDPGVSFKAVGLQPAGDVNLP | – | – | binds
